T1: extracellular portion of cynomolgus monkey CD137 fused to a histidine-containing peptide (cynomolgus monkey, UniProt A9YYE7 24-186)
T1 construct: extracellular domain; also called cynoCD137
T1 sequence: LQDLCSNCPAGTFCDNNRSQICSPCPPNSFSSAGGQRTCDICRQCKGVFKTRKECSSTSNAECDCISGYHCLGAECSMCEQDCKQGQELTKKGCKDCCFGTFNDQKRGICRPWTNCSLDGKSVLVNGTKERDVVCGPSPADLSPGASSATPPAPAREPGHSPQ

B1: DART-G (bispecific antibody, human IgG1, kappa, L234A L235A)
heavy: QVQLVQSGAEVKKPGASVKVSCKASGYTFTNYGMNWVRQAPGQGLEWMGWINTNIGEPTYTEEFKGRVTMTRDTSISTAYMELSRLRSDDTAVYYCARDDGYGNRVSYWGQGTLVTVSSASTKGPSVFPLAPSSKSTSGGTAALGCLVKDYFPEPVTVSWNSGALTSGVHTFPAVLQSSGLYSLSSVVTVPSSSLGTQTYICNVNHKPSNTKVDKRVEPKSCDKTHTCPPCPAPEAAGGPSVFLFPPKPKDTLMISRTPEVTCVVVDVSHEDPEVKFNWYVDGVEVHNAKTKPREEQYNSTYRVVSVLTVLHQDWLNGKEYKCKVSNKALPAPIEKTISKAKGQPREPQVYTLPPSREEMTKNQVSLSCAVKGFYPSDIAVEWESNGQPENNYKTTPPVLDSDGSFFLVSKLTVDKSRWQQGNVFSCSVMHEALHNRYTQKSLSLSPGK
light: DIQMTQSPSSLSASVGDRVTITCKASQDISNYLSWFQQKPGKAPKTLIYRANRLQSGVPSRFSGSGSGTDFTLTISSLQPEDFATYYCLQHDEFPWTFGQGTKLEIKRTVAAPSVFIFPPSDEQLKSGTASVVCLLNNFYPREAKVQWKVDNALQSGNSQESVTEQDSKDSTYSLSSTLTLSKADYEKHKVYACEVTHQGLSSPVTKSFNRGEC
chain 1: QVQLVQSGAEVKKPGASVKVSCKASGYTFTNYGMNWVRQAPGQGLEWMGWINTNIGEPTYTEEFKGRVTMTRDTSISTAYMELSRLRSDDTAVYYCARDDGYGNRVSYWGQGTLVTVSSASTKGPSVFPLAPSSKSTSGGTAALGCLVKDYFPEPVTVSWNSGALTSGVHTFPAVLQSSGLYSLSSVVTVPSSSLGTQTYICNVNHKPSNTKVDKRVEPKSCDKTHTCPPCPAPEAAGGPSVFLFPPKPKDTLMISRTPEVTCVVVDVSHEDPEVKFNWYVDGVEVHNAKTKPREEQYNSTYRVVSVLTVLHQDWLNGKEYKCKVSNKALPAPIEKTISKAKGQPREPQVYTLPPSREEMTKNQVSLWCLVKGFYPSDIAVEWESNGQPENNYKTTPPVLDSDGSFFLYSKLTVDKSRWQQGNVFSCSVMHEALHNHYTQKSLSLSPGGGGSGGGSGGGDIQMTQSPSSLSASVGDRVTITCRPSQDISNYLNWYQQKPDKTVKLLIYYTSRLRSGVPSRFSGSGSGTDFTFTISSLQPEDIATYFCQQGDTLPYTFGQGTKLEIKGGGSGGGGQVQLVQSGAEVKKPGASVKVSCKASGYTFTSYWINWVKQAPGQGLEWIGNIYPSDSYTNYNQKFKDKATITADKSTSTAYMELSSLRSEDTAVYYCTRDYGSSYSFDYWGQGTTVTVSSGGCGGGEVAALEKEVAALEKEVAALEKEVAALEK
chain 2: DIQMTQSPSSLSASVGDRVTITCRPSQDISNYLNWYQQKPDKTVKLLIYYTSRLRSGVPSRFSGSGSGTDFTFTISSLQPEDIATYFCQQGDTLPYTFGQGTKLEIKGGGSGGGGQVQLVQSGAEVKKPGASVKVSCKASGYTFTSYWINWVKQAPGQGLEWIGNIYPSDSYTNYNQKFKDKATITADKSTSTAYMELSSLRSEDTAVYYCTRDYGSSYSFDYWGQGTTVTVSSGGCGGGKVAALKEKVAALKEKVAALKEKVAALKE
B2: DART-D (bispecific antibody, human IgG1, kappa, L234A L235A)
heavy: B1 heavy
light: B1 light
chain 1: QVQLVQSGAEVKKPGASVKVSCKASGYTFTNYGMNWVRQAPGQGLEWMGWINTNIGEPTYTEEFKGRVTMTRDTSISTAYMELSRLRSDDTAVYYCARDDGYGNRVSYWGQGTLVTVSSASTKGPSVFPLAPSSKSTSGGTAALGCLVKDYFPEPVTVSWNSGALTSGVHTFPAVLQSSGLYSLSSVVTVPSSSLGTQTYICNVNHKPSNTKVDKRVEPKSCDKTHTCPPCPAPEAAGGPSVFLFPPKPKDTLMISRTPEVTCVVVDVSHEDPEVKFNWYVDGVEVHNAKTKPREEQYNSTYRVVSVLTVLHQDWLNGKEYKCKVSNKALPAPIEKTISKAKGQPREPQVYTLPPSREEMTKNQVSLWCLVKGFYPSDIAVEWESNGQPENNYKTTPPVLDSDGSFFLYSKLTVDKSRWQQGNVFSCSVMHEALHNHYTQKSLSLSPGGGGSGGGSGGGDIQMTQTTSSLSASLGDRVTISCRPSQDISNYLNWYQQKPDGTVKLLIYYTSRLRSGVPSRFSGSGSGTDYSLTISNLEQEDIATYFCQQGDTLPYTFGGGTKLEIKGGGSGGGGQVQLQQPGAELVRPGASVKLSCKASGYTFTSYWINWVKQRPGQGLEWIGNIYPSDSYTNYNQKFKDKATLTVDKSSSTAYMQLSSPTSEDSAVYYCTRDYGSSYSFDYWGQGTTLTVSSGGCGGGEVAALEKEVAALEKEVAALEKEVAALEK
chain 2: DIQMTQTTSSLSASLGDRVTISCRPSQDISNYLNWYQQKPDGTVKLLIYYTSRLRSGVPSRFSGSGSGTDYSLTISNLEQEDIATYFCQQGDTLPYTFGGGTKLEIKGGGSGGGGQVQLQQPGAELVRPGASVKLSCKASGYTFTSYWINWVKQRPGQGLEWIGNIYPSDSYTNYNQKFKDKATLTVDKSSSTAYMQLSSPTSEDSAVYYCTRDYGSSYSFDYWGQGTTLTVSSGGCGGGKVAALKEKVAALKEKVAALKEKVAALKE

Tests used:
[1] = biological target: T2, HER2/neu on the surface of target cells (N87, JIMT-1, MCF-7, MDA-MB231) (UniProt P04626 23-1255, limits assumed); assay: flow cytometry on N87 cells, anti-hFc APC MFI
T2 construct: whole, on cells
Description: (§1) CD137×TA Binding Molecules, DART-B, DART-D, DART-G and the control molecules DART-3 and DART-6 were additionally evaluated for their ability to bind to HER2/neu expressed on N87 cells (FIG. 13A) and JIMT-1 cells (FIG. 13B). For such evaluation, 100 μL of HER2/neu expressing target cells (1.0×1⁰⁶ cells/mL) and 100 μL of serially diluted (5- or 10-fold dilutions) test article (bispecific diabody) were added to each well of microtiter assay plate(s), mixed and incubated at RT for 45 min. The cells were washed with FACS Buffer and secondary antibody (anti-human-Fc region-APC) was then added to each well; mixed and incubated at RT for 30 min. Cells were washed and resuspended in 100 μL FACS Buffer and analyzed by flow cytometry (BD LSR Fortessa or FACSCanto 11) for cell event collection. Data analysis were performed via FloJo v10.

[2] = biological target: T2, HER2/neu on the surface of target cells …; assay: flow cytometry on N87 cells, anti-hFc APC MFI; remark: listed apart in the source
[3] = biological target: T2, HER2/neu on the surface of target cells …; assay: flow cytometry on MCF-7 cells, anti-hFc APC MFI
[4] = biological target: T2, HER2/neu on the surface of target cells …; assay: flow cytometry on JIMT-1 cells, anti-hFc APC MFI
Description: as §1

[5] = biological target: T2, HER2/neu on the surface of target cells …; assay: flow cytometry on JIMT-1 cells, anti-hFc APC MFI; remark: listed apart in the source
[6] = biological target: T3, CD137 on the surface of cells (activated human T cells; engineered CHO cells) (human, UniProt Q07011 24-255); assay: flow cytometry on activated CD8+ T cells (CD8 FITC), anti-hFc APC MFI
T3 construct: whole, on cells; also called human CD137; cell surface expressed CD137
T3 sequence (Q07011 24-255, change not shown): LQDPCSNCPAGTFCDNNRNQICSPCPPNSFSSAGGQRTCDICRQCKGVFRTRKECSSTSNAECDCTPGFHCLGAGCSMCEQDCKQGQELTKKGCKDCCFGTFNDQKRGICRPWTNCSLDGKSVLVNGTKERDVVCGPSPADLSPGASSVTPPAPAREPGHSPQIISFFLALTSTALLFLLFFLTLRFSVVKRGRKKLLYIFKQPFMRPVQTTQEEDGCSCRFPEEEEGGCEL

[7] = biological target: T3, CD137 on the surface of cells …; assay: flow cytometry on CD137-expressing CHO cells (CHO/137), anti-hFc APC MFI
[8] = biological target: T3, CD137 on the surface of cells …; assay: as above; remark: listed apart in the source
[9] = biological target: T4, extracellular portion of human CD137 fused to a histidine-containing peptide (human, UniProt Q07011 24-186); assay: SPR (BIACORE); molecule captured on anti-human Fc; huCD137 6.25-100 nM; 1:1 Langmuir
T4 construct: extracellular domain; also called huCD137; His-tagged soluble human CD137
Description: (§2) The amino acid sequences of these clones were incorporated into the 5 chain diabody DART-G to yield optimized DART-G molecules (designated as DART-G1, DART-G2; DART-G3, and DART-G4). The binding affinity of DART-G2, DART-G3, and DART-G4 were evaluated via BIAcore (Table 11). For such evaluation, His-tagged soluble human CD137 (huCD137) or cynomolgus monkey CD137 (cynoCD137) (containing an extracellular portion of human or cynomolgus monkey CD137 fused to a histidine-containing peptide) was passed over a surface coated with immobilized antibody. Briefly, each test molecule was captured onto an F(ab)₂ goat-anti-human Fc-coated surface and then incubated in the presence of different concentrations (6.25-100 nM) of huCD137 or cynoCD137. The kinetics of binding were determined via BIACORE® analysis binding (normalized 1:1 Langmuir binding model).

[10] = biological target: T1, extracellular portion of cynomolgus …; assay: SPR (BIACORE); molecule captured on anti-human Fc; cynoCD137 6.25-100 nM; 1:1 Langmuir
Description: as §2

[11] = biological target: T3, CD137 on the surface of cells …; assay: flow cytometry on activated pan T cells (donor D46433, CD8 PE), anti-hFc APC MFI
[12] = biological target: T3, CD137 on the surface of cells …; assay: flow cytometry on activated CD8+ T cells (donor D53781, CD8 FITC), anti-hFc APC MFI
[13] = biological target: T1, extracellular portion of cynomolgus …; assay: SPR (BIACORE); molecule captured on anti-human Fc; cynoCD137 6.25-100 nM; column head ×10^-4 applied as printed
Description: as §2

[14] = biological target: T2, HER2/neu on the surface of target cells …; assay: flow cytometry on N87 gastric cancer cells, anti-hFc APC MFI
[15] = biological target: T2, HER2/neu on the surface of target cells …; assay: as above; remark: listed apart in the source
[16] = biological target: T3, CD137 on the surface of cells …; assay: flow cytometry on activated pan T cells gated CD8, anti-hFc APC MFI
[17] = biological target: T3, CD137 on the surface of cells …; assay: as above; remark: listed apart in the source

Binder | EC50 (read off the curve) [1] [µg/mL] | EC50 (read off the curve) [2] [nM] | EC50 (read off the curve) [3] [nM] | EC50 (read off the curve) [4] [µg/mL] | EC50 (read off the curve) [5] [nM] | EC50 (read off the curve) [6] [µg/mL] | EC50 (read off the curve) [7] [µg/mL] | EC50 (read off the curve) [8] [µg/mL] | Kd [9] [nM] | koff [9] [s⁻¹] | kon [9] [M⁻¹ s⁻¹] | Kd [10] [nM] | kon [10] [M⁻¹ s⁻¹] | EC50 (read off the curve) [11] [nM] | EC50 (read off the curve) [12] [µg/mL] | koff [13] [s⁻¹] | EC50 (read off the curve) [14] [nM] | EC50 (read off the curve) [15] [nM] | EC50 (read off the curve) [16] [nM] | EC50 (read off the curve) [17] [nM]
B1 | ~0.1 | ~0.5 | ~0.09 | ~0.04 | ~0.2 | ~0.03 | ~0.02 | ~0.02 | 114 | 0.042 | 370000 | 115 | 390000 | ~0.1 | ~0.03 | 0.045 | – | – | – | –
B2 | ~0.07 | – | – | ~0.03 | – | ~0.02 | ~0.02 | – | 53 | 0.025 | 470000 | 67 | 460000 | – | – | 0.031 | ~0.5 | ~0.5 | ~0.2 | ~0.2
